In article PMC5286426, “The Calcium-Dependent Switch Helix of L-Plastin Regulates Actin Bundling” (Scientific Reports, 2017):
Entries after “also recorded” stand apart in the source; their conditions may differ.

Tests used:
actin [1] = conditions: compared to the non-phosphorylated LPL protein; cited from earlier work
Source text: In addition to the Ca^2+ switch, the targeting of LPL to the actin cytoskeleton is also regulated by the phosphorylation of Ser5[41]. Among all three human plastin isoforms, LPL is the only isoform that is currently known to be phosporylated in vivo[40]. Unlike other actin-binding proteins, where phosphorylation usually occurs in the actin-binding domain, LPL phosphorylation seems to take place on the regulatory Ca^2+-binding domain. […] They hypothesized ...

actin [2] = conditions: in vitro; cited from earlier work
Source text: LPL is comprised of two N-terminal EF-hand motifs (head-piece domain), which are homologous to a single domain of calmodulin (CaM) (34.7% identical), followed by two actin-binding domains (ABDs)[5]. Each ABD consists of two independently folded calponin homology (CH) domains. While many signaling and cytoskeletal proteins share these CH domains, plastins are the only known proteins to have two tandem ABDs[31][32][33]. The four CH domains are each folded into a compact globular shape where the ABD1 and ABD2 are arranged back-to-back[34][35]. Each ABD can bind an actin-filament, thereby LPL ... || In order to further investigate the role of H5 in the Ca^2+-dependent actin-bundling of LPL, we have performed actin-bundling assays with a series of different LPL constructs (Fig. 4).

[3] = cited from earlier work
Source text: L-plastin (LPL) is a 70 kDa Ca^2+- and actin-binding protein that plays an important role in both the adaptive and innate immune system. Among the three isoforms found in humans (L-, T-, and I-plastin), LPL is exclusively expressed in cells of hematopoietic origin, where it can act as an actin cross-linker by promoting actin bundling. The actin-bundling activity of LPL is known to be calcium-dependent, where increasing calcium concentrations inhibit the formation of actin-bundles[9][10].

CaM = conditions: CaM-pull down; cited from earlier work
Source text: The H5 region of LPL was previously predicted as a potential binding site for CaM[48]. Indeed this sequence produced a high theoretically predicted score for CaM binding. […] Therefore, we have tested the interaction between EF-H5 and CaM in the presence of EDTA. However, ...

[4] = system: Human platelet actin (F-actin); test: Actin-bundling assay, low-speed centrifugation and SDS-PAGE; type: biochemical; conditions: 6 µM F-actin, n = 3 (Fig. 4a); for Amount of actin found in the pellet: 3 µM LPL construct, pH 7.5, room temperature, 1 h; for Amount of LPL found in the pellet: 3 µM LPL
Method: Human platelet actin (Cytoskeleton) was dissolved in 2 mM Tris pH7.5, 0.2 mM CaCl2, 0.2 mM ATP, and 0.5 mM DTT (Buffer G). The actin was then polymerized overnight at 4 °C in 20 mM Tris pH 7.5, 100 mM KCl, and 1 mM MgCl2. Spontaneously bundled F-actin was removed by centrifugation at 12,000 g for 15 min prior to the assay. F-actin and LPL constructs were incubated at room temperature for 1 h in 50 uL of the buffer containing 20 mM Tris pH7.5, 100 mM KCl, 1 mM MgCl2, 6 µM F-actin, 3 µM LPL construct, 0.1 mM CaCl2, 0.1 mM ATP with and without 5 mM EGTA. LPL induced actin bundles were sedimented by centrifugation at 12,000 g for 15 min and the supernatant was carefully removed. The amount of actin and/or LPL construct in the pellet was analyzed by SDS-PAGE. The effect of the presence of 12 µM melittin peptide on actin-bundling was also examined.

B1: S5E mutant: LPL S5E mutant of Janji and coworkers (protein, UniProt P13796 2-627, looked up, variant S5E)
Plastin-2: ARGEVSDEEMMELREAFAKVDTDGNGYISFNELNDLFKAACLPLPGYRVREITENLMATGDLDQDGRISFDEFIKIFHGLKSTDVAKTFRKAINKKEGICAIGGTSEQSSVGTQHSYSEEEKYAFVNWINKALENDPDCRHVIPMNPNTNDLFNAVGDGIVLCKMINLSVPDTIDERTINKKKLTPFTIQENLNLALNSASAIGCHVVNIGAEDLKEGKPYLVLGLLWQVIKIGLFADIELSRNEALIALLREGESLEDLMKLSPEELLLRWANYHLENAGCNKIGNFSTDIKDSKAYYHLLEQVAPKGDEEGVPAVVIDMSGLREKDDIQRAECMLQQAERLGCRQFVTATDVVRGNPKLNLAFIANLFNRYPALHKPENQDIDWGALEGETREERTFRNWMNSLGVNPRVNHLYSDLSDALVIFQLYEKIKVPVDWNRVNKPPYPKLGGNMKKLENCNYAVELGKNQAKFSLVGIGGQDLNEGNRTLTLALIWQLMRRYTLNILEEIGGGQKVNDDIIVNWVNETLREAKKSSSISSFKDPKISTSLPVLDLIDAIQPGSINYDLLKTENLNDDEKLNNAKYAISMARKIGARVYALPEDLVEVNPKMVMTVFACLMGKGMKRV
For B1, the Actin bundling activity (actin [1]) is listed as “increased actin bundling activity”.

B2: ABD1: actin-binding domain 1 of LPL (residues 113–379) (protein, UniProt P13796 113-379, looked up, fragment)
chain: GTQHSYSEEEKYAFVNWINKALENDPDCRHVIPMNPNTNDLFNAVGDGIVLCKMINLSVPDTIDERTINKKKLTPFTIQENLNLALNSASAIGCHVVNIGAEDLKEGKPYLVLGLLWQVIKIGLFADIELSRNEALIALLREGESLEDLMKLSPEELLLRWANYHLENAGCNKIGNFSTDIKDSKAYYHLLEQVAPKGDEEGVPAVVIDMSGLREKDDIQRAECMLQQAERLGCRQFVTATDVVRGNPKLNLAFIANLFNRYPALHK
modifications: actin-binding domain 1
For B2, the “Actin binding of ABD1 relative to ABD2” value (actin [2]) is listed as “an order of magnitude stronger than ABD2; also recorded: ten times stronger than ABD2”.

B3: LPL: 70 kDa Ca^2+- and actin-binding protein, full-length human L-plastin (protein)
chain: MARGSVSDEEMMELREAFAKVDTDGNGYISFNELNDLFKAACLPLPGYRVREITENLMATGDLDQDGRISFDEFIKIFHGLKSTDVAKTFRKAINKKEGICAIGGTSEQSSVGTQHSYSEEEKYAFVNWINKALENDPDCRHVIPMNPNTNDLFNAVGDGIVLCKMINLSVPDTIDERTINKKKLTPFTIQENLNLALNSASAIGCHVVNIGAEDLKEGKPYLVLGLLWQVIKIGLFADIELSRNEALIALLREGESLEDLMKLSPEELLLRWANYHLENAGCNKIGNFSTDIKDSKAYYHLLEQVAPKGDEEGVPAVVIDMSGLREKDDIQRAECMLQQAERLGCRQFVTATDVVRGNPKLNLAFIANLFNRYPALHKPENQDIDWGALEGETREERTFRNWMNSLGVNPRVNHLYSDLSDALVIFQLYEKIKVPVDWNRVNKPPYPKLGGNMKKLENCNYAVELGKNQAKFSLVGIGGQDLNEGNRTLTLALIWQLMRRYTLNILEEIGGGQKVNDDIIVNWVNETLREAKKSSSISSFKDPKISTSLPVLDLIDAIQPGSINYDLLKTENLNDDEKLNNAKYAISMARKIGARVYALPEDLVEVNPKMVMTVFACLMGKGMKRV
modifications: left off: GST, end not stated, cleaved
In the case of B3, the “Sensitivity to intracellular Ca^2+-signals” value [3] is given as “optimal Ca^2+-binding affinity to respond to intracellular Ca^2+-signals”, the “Direct binding to CaM” value (CaM) is given as “only seen in the absence of Ca^2+” and the “Amount of actin found in the pellet” value ([4]; in the presence of Ca^2+ (0.1 mM CaCl2)) is given as ~ 50%. The “Amount of actin found in the pellet” value ([4]; in the presence of EGTA, 5 mM EGTA) was ~ 90%, the “Amount of LPL found in the pellet” value ([4]; with Ca^2+) was ~ 50% and the “Amount of LPL found in the pellet” value ([4]; with EGTA) was ~ 70%.

B4: T-plastin: plastin isoform from solid tissues, such as fibroblasts and epithelial cells (protein, UniProt P13797 1-630, looked up)
Plastin-3: MDEMATTQISKDELDELKEAFAKVDLNSNGFICDYELHELFKEANMPLPGYKVREIIQKLMLDGDRNKDGKISFDEFVYIFQEVKSSDIAKTFRKAINRKEGICALGGTSELSSEGTQHSYSEEEKYAFVNWINKALENDPDCRHVIPMNPNTDDLFKAVGDGIVLCKMINLSVPDTIDERAINKKKLTPFIIQENLNLALNSASAIGCHVVNIGAEDLRAGKPHLVLGLLWQIIKIGLFADIELSRNEALAALLRDGETLEELMKLSPEELLLRWANFHLENSGWQKINNFSADIKDSKAYFHLLNQIAPKGQKEGEPRIDINMSGFNETDDLKRAESMLQQADKLGCRQFVTPADVVSGNPKLNLAFVANLFNKYPALTKPENQDIDWTLLEGETREERTFRNWMNSLGVNPHVNHLYADLQDALVILQLYERIKVPVDWSKVNKPPYPKLGANMKKLENCNYAVELGKHPAKFSLVGIGGQDLNDGNQTLTLALVWQLMRRYTLNVLEDLGDGQKANDDIIVNWVNRTLSEAGKSTSIQSFKDKTISSSLAVVDLIDAIQPGCINYDLVKSGNLTEDDKHNNAKYAVSMARRIGARVYALPEDLVEVKPKMVMTVFACLMGRGMKRV
In the case of B4, the “Sensitivity to intracellular Ca^2+-signals” value [3] is listed as “relatively insensitive”.
